Laboratory results from article PMC6751199, “A synthetic metabolic network for physicochemical homeostasis” (Nature Communications, 2019).

Legend:
[1] = target: T1, ArcD2 (arginine/ornithine antiporter) (Lactococcus lactis, UniProt Q9CE19); assay: […]-arginine uptake in ArcD2 proteoliposomes; type: biochemical; conditions: 50 mM KPi pH 7.0, 30 °C; 10 µM arginine outside, counter-substrate L-ornithine inside; labelled compound
T1 construct: full length, cleavable C-terminal 10His tag (cleavage not described), expressed in L. lactis JP9000 (arcD1D2 deleted), purified in DDM, reconstituted in DOPE/DOPC/DOPG vesicles
T1 sequence (Q9CE19 1-497): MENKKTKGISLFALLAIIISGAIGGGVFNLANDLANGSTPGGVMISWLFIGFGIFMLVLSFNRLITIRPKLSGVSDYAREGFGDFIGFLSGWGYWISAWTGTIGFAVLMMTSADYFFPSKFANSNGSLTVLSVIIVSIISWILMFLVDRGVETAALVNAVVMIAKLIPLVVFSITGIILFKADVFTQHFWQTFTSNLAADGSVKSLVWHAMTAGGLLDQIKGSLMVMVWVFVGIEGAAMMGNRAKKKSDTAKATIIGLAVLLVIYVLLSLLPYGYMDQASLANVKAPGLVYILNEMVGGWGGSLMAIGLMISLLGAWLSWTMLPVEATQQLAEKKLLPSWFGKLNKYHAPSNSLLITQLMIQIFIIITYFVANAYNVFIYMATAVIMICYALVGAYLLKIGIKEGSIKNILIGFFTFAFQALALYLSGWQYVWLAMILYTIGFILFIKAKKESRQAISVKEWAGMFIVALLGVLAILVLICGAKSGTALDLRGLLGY

[2] = target: T1, ArcD2 (arginine/ornithine antiporter); assay: […]-arginine uptake in ArcD2 proteoliposomes loaded with citrulline; type: biochemical; conditions: 50 mM KPi pH 7.0, 30 °C; counter-substrate 10 µM 14C-arginine outside; 1 or 10 mM citrulline inside; electrogenic
[3] = target: T2, OpuA (ATP-driven glycine betaine transporter) (Lactococcus lactis, UniProt Q9RQ05); assay: […]-glycine betaine uptake in OpuA/ArcD2 vesicles; type: biochemical; conditions: 100 mM KPi pH 7.0, 250 mM KCl, 30 °C; ATP regenerated inside from arginine; 18 µM glycine betaine; labelled compound
T2 construct: gene busAB; ABC transporter complex purified by Ni-Sepharose in DDM (tag not described here), expressed in L. lactis, co-reconstituted with ArcD2 in lipid vesicles
T2 sequence (Q9RQ05 1-573): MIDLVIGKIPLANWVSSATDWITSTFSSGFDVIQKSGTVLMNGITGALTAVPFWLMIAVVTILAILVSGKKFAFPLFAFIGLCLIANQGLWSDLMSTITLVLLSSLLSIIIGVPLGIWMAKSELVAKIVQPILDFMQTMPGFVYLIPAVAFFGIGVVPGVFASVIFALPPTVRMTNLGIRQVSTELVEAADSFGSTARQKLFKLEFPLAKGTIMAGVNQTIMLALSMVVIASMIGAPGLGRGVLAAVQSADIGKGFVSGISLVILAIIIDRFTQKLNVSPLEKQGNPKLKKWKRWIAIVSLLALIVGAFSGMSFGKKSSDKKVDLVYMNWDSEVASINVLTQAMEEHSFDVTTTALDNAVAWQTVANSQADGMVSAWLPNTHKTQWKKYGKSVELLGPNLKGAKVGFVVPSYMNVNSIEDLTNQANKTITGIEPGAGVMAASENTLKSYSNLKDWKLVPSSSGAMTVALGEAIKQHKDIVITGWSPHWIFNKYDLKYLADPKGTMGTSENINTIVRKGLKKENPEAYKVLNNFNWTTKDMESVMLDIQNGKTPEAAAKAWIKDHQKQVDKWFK
T2 sequence (Q9RQ06 1-407 partner): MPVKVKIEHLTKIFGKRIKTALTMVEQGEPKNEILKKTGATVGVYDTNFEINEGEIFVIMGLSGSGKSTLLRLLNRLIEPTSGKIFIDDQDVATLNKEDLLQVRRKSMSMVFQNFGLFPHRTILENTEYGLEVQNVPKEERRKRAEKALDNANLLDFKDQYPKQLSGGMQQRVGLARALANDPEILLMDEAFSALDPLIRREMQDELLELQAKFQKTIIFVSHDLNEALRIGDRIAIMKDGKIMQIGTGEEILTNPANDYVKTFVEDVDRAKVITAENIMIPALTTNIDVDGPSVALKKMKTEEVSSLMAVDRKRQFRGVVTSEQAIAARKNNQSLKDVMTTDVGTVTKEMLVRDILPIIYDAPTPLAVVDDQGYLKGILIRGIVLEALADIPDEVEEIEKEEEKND

[4] = substrate: N=C(N)NCCC[C@H](N)C(=O)O; assay: purified protein; type: biochemical, Lactococcus lactis; conditions: 50 mM KPi pH 7.0, 30 °C, 0-480 µM L-arginine
[5] = substrate: NCCC[C@H](N)C(=O)O; assay: purified protein; conditions: 50 mM KPi pH 7.0, 30 °C, excess carbamoyl-phosphate, back reaction (citrulline formation)
[6] = substrate: NC(=O)OP(=O)(O)O; assay: purified protein; type: biochemical, Lactococcus lactis; conditions: 50 mM KPi pH 7.0, 30 °C, excess L-ornithine, back reaction (citrulline formation)
[7] = substrate: NC(=O)OP(=O)(O)O; assay: ATP/ADP ratio by PercevalHR fluorescence, pH-corrected with pyranine; type: biochemical, Lactococcus lactis; conditions: 50 mM KPi pH 7.0, 5 mM MgSO4, 30 °C, excess ADP
[8] = substrate: Nc1ncnc2c1ncn2[C@@H]1O[C@H](COP(=O)(O)OP(=O)(O)O)[C@@H](O)[C@H]1O; assay: as above; type: biochemical, Lactococcus lactis; conditions: 50 mM KPi pH 7.0, 5 mM MgSO4, 30 °C, excess carbamoyl-phosphate

## N=C(N)NCCC[C@H](N)C(=O)O [L-arginine]
[1]
  14C-arginine uptake in ArcD2 proteoliposomes: demonstrated exchange of arginine for ornithine

## NC(=O)NCCC[C@H](N)C(=O)O [L-citrulline]
[2]
  14C-arginine uptake in ArcD2 proteoliposomes loaded with citrulline: ArcD2 exchanges arginine for citrulline, albeit at a much lower rate

## C[N+](C)(C)CC(=O)[O-] [glycine betaine]
[3]
  14C-glycine betaine uptake in OpuA/ArcD2 vesicles: OpuA is constitutively active and imports glycine betaine at the expense of ATP

B1: ArcA (arginine deiminase) (Lactococcus lactis subsp. lactis Il1403) (protein)
chain: MNNGINVNSEIGKLKSVLLHRPGAEVENITPDTMKQLLFDDIPYLKIAQKEHDFFAQTLRDNGAETVYIENLATEVFEKSSETKEEFLSHLLHEAGYRPGRTYDGLTEYLTSMSTKDMVEKIYAGVRKNELDIKRTALSDMAGSDAENYFYLNPLPNAYFTRDPQASMGVGMTINKMTFPARQPESLITEYVMANHPRFKDTPIWRDRNHTTRIEGGDELILNKTTVAIGVSERTSSKTIQNLAKELFANPLSTFDTVLAVEIPHNHAMMHLDTVFTMINHDQFTVFPGIMDGAGNINVFILRPGKDDEVEIEHLTDLKAALKKVLNLSELDLIECGAGDPIAAPREQWNDGSNTLAIAPGEIVTYDRNYVTVELLKEHGIKVHEILSSELGRGRGGARCMSQPLWREDL
notes: full length, cleavable N-terminal 6His tag (cleavage not described), expressed from pNZarcA in L. lactis NZ9000, Ni-Sepharose and Superdex 200
[4]
  Km: 26.5 µM
  kcat: 12 s⁻¹

B2: ArcB (ornithine transcarbamoylase) (Lactococcus lactis subsp. lactis Il1403) (protein)
chain: MTSPLITKAEVNSVFQGRSLLAEKDFTPAEINYLVDFGLHLKALKQQNIPHHYLEGKNIALLFAKTSTRTRAAFTTAAIDLGAHPEYLGANDIQLGIKESTEDTARVLGSMFDAIERRGFSQKEVEDLAKYSGVPVWNGLTDDWHPTQMIADFMTVKENFGHLKGLTLVYVGDGRNNMANSLIVTGSMLGVNVHIVAPDSLHPTKEVMDIANKFAEKSGAKPLATSNIEEGVKGANIIYSDVWVSMGESNWEERVKLLTPYRITMDMLKMTGNADNGQLIFMHCLPAFHDTETEYGKEIKEKYGLTEMEVTDEVFRSKYARQFEEAENRMHSIKAIMAATLGNLFIPAVPEDFK
notes: full length, cleavable N-terminal 6His tag (cleavage not described), expressed from pNZarcB in L. lactis NZ9000, Ni-Sepharose and Superdex 200
[5]
  Km: 700 µM
  kcat: 2300 s⁻¹
[6]
  Km: 1900 µM
  kcat: 2900 s⁻¹

B3: ArcC1 (carbamate kinase) (Lactococcus lactis subsp. lactis Il1403) (protein)
chain: MVKRIVVALGGNAILSKDPSAKAQKEALEVTAEQLMPLIKDNDRQMVVTHGNGPQVGNLLLQQLGSDSEKNPAMPLDTVGAMTQGEIGFWTVQAFTRAMANNGLEHYPVISAVTQTLVDENDPAFKNASKPIGPFYTEEQLPEIKKQFPDWELMEDAGRGYRRVVPSPKPLEIIEAKAFGPILESGSLLIASGGGGIPVIKDGKGYQGVEAVIDKDFSAAKLAEMVGADELLILTSGGDVYLNYGKENQVHLETVKVSEMRKYVDEERFAKGSMGPKVEAAVSFVERTGKTATITSLDNVENFVKSGSGTRIVP
notes: full length, cleavable N-terminal 10His tag (cleavage not described), expressed from pNZarcC1 in L. lactis NZ9000, Ni-Sepharose and Superdex 200
[7]
  Km: 700 µM
  kcat: 420 s⁻¹
[8]
  Km: 1000 µM
  kcat: 310 s⁻¹
